Reference: patent US20020141999A1

Legend:
[1] = target: human CD7, full length, on cells (human) (UniProt P09564); test: flow cytometry, control Fc on Jurkat cells (express CD7), non-blocked
[2] = target: human CD7, full length, on cells (human) (UniProt P09564); test: flow cytometry, control IgG staining of Jurkat cells (express CD7), non-blocked
[3] = target: human CD7, full length, on cells (human) (UniProt P09564); test: flow cytometry, control IgG on Jurkat cells (express CD7), non-blocked
[4] = target: human CD7, full length, on cells (human) (UniProt P09564); test: flow cytometry, antibody staining of Jurkat cells preincubated with HuK12-Fc (competitor)
[5] = target: human CD7, full length, on cells (human) (UniProt P09564); test: flow cytometry, antibody staining of Jurkat cells (express CD7), non-blocked

Chain of human CD7, full length, on cells (human) (P09564 26-240 limits assumed): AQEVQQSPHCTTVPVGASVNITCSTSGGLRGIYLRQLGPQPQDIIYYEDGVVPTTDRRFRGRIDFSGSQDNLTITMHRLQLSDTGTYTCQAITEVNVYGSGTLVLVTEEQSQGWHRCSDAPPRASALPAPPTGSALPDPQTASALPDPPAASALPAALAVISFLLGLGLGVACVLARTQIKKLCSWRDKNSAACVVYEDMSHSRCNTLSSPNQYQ

Substance	% Positive Cells [1] [%]	MFI [1]	% Positive Cells [2] [%]	MFI [2]	% Positive Cells [3] [%]	MFI [3]	% Positive Cells [4] [%]	MFI [4]	% Positive Cells [5] [%]	MFI [5]
Control Fc (Fc fusion)	3.4	18								
IgG Control (antibody)			3	18	3.6	17				
anti-human CD7 monoclonal antibody Clone 8118.1 (Immunotech)							8	24	78	27
anti-human CD7 monoclonal antibody Clone WM31 (Research Diagnostics, Inc.)							11	18	62	22

Now from value to substance:

% Positive Cells [1] [%]	MFI [1]	% Positive Cells [2] [%]	MFI [2]	% Positive Cells [3] [%]	MFI [3]	% Positive Cells [4] [%]	MFI [4]	% Positive Cells [5] [%]	MFI [5]	Substance
						4	19	88	38	anti-human CD7 monoclonal antibody Clone 4H9 (Pharmingen)
						63	24	80	30	anti-human CD7 monoclonal antibody Clone CLB-3A1 (Research Diagnostics, Inc.)
						12	19	78	27	anti-human CD7 monoclonal antibody Clone M-T701 (Becton Dickinson)
						9	18	71	23	anti-human CD7 monoclonal antibody Clone RFT-2a (Research Diagnostics, Inc.)
